In the supplement of paper PMC10126150:
± gives the standard deviation of the averaged measurements.

Test system: ATP
Experiment: switch fluorescence ratio, 500 uM ATP over buffer (Cy3 cluster intensity, sum of 5 cycles each) (fold (ratio)); higher = stronger signal-on switching upon ATP binding; sequences stand for … in TCGTCGGCAGCGTCAGATGTGTATAAGAGACAGTTTTTTTTTTTTTTTTTTTTTTTTT…TC
Conditions: aptamer strand: ATP DNA aptamer (quencher-CACCTGGGGGAGTATTGCGGAGGAAGG + anchor), 100 nM annealed; ATP concentration: 500 uM
Method in brief: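 Cy3-labelled switching-strand clusters on a modified Illumina MiSeq flow-cell were annealed to 100 nM quencher-labelled ATP aptamer and imaged first in selection buffer, then after 15 min with 500 uM ATP at 22 °C. NaOH stripping and re-annealing separated each of five buffer/ATP cycles, and clusters outside 100-1000 RFU were excluded. The fluorescence ratio sums target-cycle Cy3 intensity over buffer-cycle Cy3 intensity per cluster and averages it per switch-domain sequence.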
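Note: ATP exposure 15 min at 22 °C before imaging.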

Sequence	switch fluorescence ratio
AGGAGACATA	1 ± 0.021
AGGAGAGGAG	1.02 ± 0.038
AGGAGCGCGT	1.02 ± 0.051
AGGAGCGGGG	1 ± 0.1
AGGAGCGGTG	0.985 ± 0.047
AGGAGCTCGG	0.994 ± 0.013
AGGAGGAAAG	0.987 ± 0.028
AGGAGGAGTT	1.01 ± 0.053
AGGAGGCTAG	1.02 ± 0.045
AGGAGGGGA	1.03 ± 0.02
AGGAGGGGCG	0.983 ± 0.0099
AGGAGGTCGG	0.991 ± 0.01
AGGAGGTTGT	0.976 ± 0.017
AGGAGTGTTC	1.01 ± 0.084
AGGATACTGG	0.975 ± 0.031
AGGATCGGAT	1.04 ± 0.003
AGGATCGGTC	1.02 ± 0.021
AGGATCTCGA	0.996 ± 0.033
AGGATGGGAG	0.999 ± 0.023
AGGATGGGGA	0.99 ± 0.023
AGGATGGTAC	1.03 ± 0.015
AGGATGTAGG	1.02 ± 0.035
AGGATGTTTT	0.995 ± 0.039
AGGATTAAAT	0.987 ± 0.026
AGGATTGTTG	0.994 ± 0.07

Sequence	switch fluorescence ratio
AGGATTTATG	0.962 ± 0.021
AGGATTTT	0.955 ± 0.066
AGGATTTTTC	1.03 ± 0.044
AGGATTTTTT	1.003 ± 0.0094
AGGCAACTAG	1.05 ± 0.027
AGGCACCATC	1.06 ± 0.045
AGGCACCGGT	1.04 ± 0.0041
AGGCACGGGC	1.0064 ± 0.001
AGGCACTACA	1.017 ± 0.0064
AGGCAGATAG	1.04 ± 0.025
AGGCAGCTAT	1.05 ± 0.038
AGGCAGGAGG	1 ± 0.015
AGGCAGGGGG	1.03 ± 0.021
AGGCATCTGG	0.994 ± 0.011
AGGCCACTCG	0.978 ± 0.0036
AGGCCAGCTG	0.993 ± 0.062
AGGCCAGGCG	1.02 ± 0.051
AGGCCAGTTG	1.02 ± 0.012
AGGCCCGTTA	0.9957 ± 0.0027
AGGCCGGCAA	1.02 ± 0.045
AGGCCGGTGA	1.01 ± 0.018
AGGCCTTCAG	0.9915 ± 0.0083
AGGCCTTGGC	1.018 ± 0.0039
AGGCCTTGTG	0.985 ± 0.025
AGGCCTTTTG	0.956 ± 0.033

Sequence	switch fluorescence ratio
AGGCGCGTGG	1.03 ± 0.013
AGGCGCTGGG	0.999 ± 0.028
AGGCGGATCG	0.99 ± 0.085
AGGCGGCGAG	1 ± 0.024
AGGCGGGTGC	1.04 ± 0.095
AGGCGGGTTG	0.993 ± 0.026
AGGCGGTGGG	1.044 ± 0.0059
AGGCGTGGGG	1.03 ± 0.017
AGGCTAGGGC	0.993 ± 0.022
AGGCTCGTAC	1.08 ± 0.09
AGGCTGGGGA	1.01 ± 0.057
AGGCTGTCAC	0.996 ± 0.013
AGGCTTACCC	1.01 ± 0.018
AGGCTTGGGT	0.982 ± 0.024
AGGCTTTCAG	0.9828 ± 0.0011
AGGCTTTTTC	0.999 ± 0.024
AGGCTTTTTG	0.969 ± 0.015
AGGGAAAAAA	1.01 ± 0.043
AGGGAAAATG	0.967 ± 0.033
AGGGAAAATT	0.995 ± 0.011
AGGGAAAGCT	1.12 ± 0.2
AGGGAAGATA	0.998 ± 0.014
AGGGAAGCGG	0.982 ± 0.047
AGGGAAGGGA	1 ± 0.013
AGGGAAGTTT	1.03 ± 0.084

Sequence	switch fluorescence ratio
AGGGAATGAA	1.03 ± 0.085
AGGGAATTAC	1.022 ± 0.0036
AGGGACACTA	1.07 ± 0.028
AGGGACAGGG	1.02 ± 0.05
AGGGACATAT	1.018 ± 0.006
AGGGACGCTT	1.14 ± 0.12
AGGGACTGGG	0.993 ± 0.038
AGGGAGACGG	1 ± 0.033
AGGGAGCCGG	0.965 ± 0.03
AGGGAGGAAA	1 ± 0.036
AGGGAGGCTC	1 ± 0.057
AGGGAGGGAG	0.97 ± 0.035
AGGGAGGTGT	0.997 ± 0.036
AGGGAGTTGG	0.995 ± 0.032
AGGGATATAT	0.98 ± 0.011
AGGGATATTT	1.01 ± 0.033
AGGGATTCGC	0.997 ± 0.011
AGGGCATAAG	0.982 ± 0.062
AGGGCATCGG	1.021 ± 0.0044
AGGGCATTAT	1.04 ± 0.047
AGGGCCCTCG	0.9898 ± 0.0036
AGGGCCTCCG	1.295 ± 0.0091
AGGGCCTGGG	0.999 ± 0.04
AGGGCGACCG	1.07 ± 0.069
AGGGCGCGCT	1.01 ± 0.034

Sequence	switch fluorescence ratio
AGGGCGCTG	0.9885 ± 0.0045
AGGGCGTCGA	0.986 ± 0.034
AGGGCGTGGC	0.9876 ± 0.0018
AGGGCGTTTG	0.998 ± 0.018
AGGGCTAAAT	0.995 ± 0.025
AGGGCTGACG	1.02 ± 0.024
AGGGCTGGAT	1.06 ± 0.12
AGGGCTTTCC	1.075 ± 0.007
AGGGGAAGCT	1.03 ± 0.081
AGGGGAAGTC	0.953 ± 0.015
AGGGGAATAA	0.997 ± 0.015
AGGGGAATG	1 ± 0.022
AGGGGAATGC	1.09 ± 0.084
AGGGGAATTA	1.026 ± 0.0047
AGGGGACAAA	1 ± 0.035
AGGGGACTGT	1.01 ± 0.047
AGGGGAGATG	0.991 ± 0.048
AGGGGAGGAA	0.994 ± 0.013
AGGGGAGGGC	0.998 ± 0.042
AGGGGAGTAA	0.996 ± 0.023
AGGGGATGGG	1.03 ± 0.033
AGGGGCAAAG	1.01 ± 0.013
AGGGGCATGG	0.998 ± 0.04
AGGGGCCGGG	1.05 ± 0.12
AGGGGCCTGT	0.962 ± 0.037

Sequence	switch fluorescence ratio
AGGGGCGAGA	0.999 ± 0.013
AGGGGCGGAG	0.9743 ± 0.0035
AGGGGCTCGT	1 ± 0.012
AGGGGCTGAA	0.986 ± 0.042
AGGGGCTTGT	0.979 ± 0.024
AGGGGGAATA	1.02 ± 0.011
AGGGGGACGG	0.987 ± 0.023
AGGGGGATGG	0.996 ± 0.013
AGGGGGCAAC	1.04 ± 0.03
AGGGGGCGTA	0.9896 ± 0.0086
AGGGGGCGTG	1.03 ± 0.031
AGGGGGCTAT	1.02 ± 0.015
AGGGGGCTCG	1 ± 0.024
AGGGGGCTGG	0.977 ± 0.018
AGGGGGGATT	1 ± 0.019
AGGGGGGCCC	1 ± 0.037
AGGGGGGGAA	1.01 ± 0.032
AGGGGGGGTG	1.05 ± 0.11
AGGGGGGTAA	0.993 ± 0.026
AGGGGGGTG	1 ± 0.039
AGGGGGTCGT	0.98 ± 0.017
AGGGGGTTAA	0.996 ± 0.017
AGGGGGTTGA	1.03 ± 0.032
AGGGGGTTGC	1.01 ± 0.026
AGGGGGTTTC	1 ± 0.022

Sequence	switch fluorescence ratio
AGGGGTAACG	0.9807 ± 0.0098
AGGGGTAGTA	1.03 ± 0.04
AGGGGTAGTG	0.98 ± 0.019
AGGGGTATAT	1.02 ± 0.028
AGGGGTATTT	1.01 ± 0.041
AGGGGTGAGC	1.02 ± 0.072
AGGGGTGCCG	1.05 ± 0.026
AGGGGTGGCG	1.02 ± 0.014
AGGGGTGGTT	0.9581 ± 0.0017
AGGGGTGTCT	1.03 ± 0.017
AGGGGTTCCG	0.979 ± 0.042
AGGGGTTGGC	0.958 ± 0.056
AGGGGTTGGG	0.992 ± 0.061
AGGGGTTGTA	0.971 ± 0.02
AGGGGTTTCT	0.984 ± 0.016
AGGGTAAAGT	0.98 ± 0.018
AGGGTAACTT	1.01 ± 0.023
AGGGTAAGGT	1.04 ± 0.082
AGGGTAATGC	1.11 ± 0.09
AGGGTAATGT	0.9718 ± 0.0036
AGGGTAATTA	0.979 ± 0.029
AGGGTACTTA	1.05 ± 0.028
AGGGTAGGCC	1.009 ± 0.0019
AGGGTAGTTT	0.985 ± 0.045
AGGGTATGAA	0.998 ± 0.022

Sequence	switch fluorescence ratio
AGGGTATGTA	1 ± 0.015
AGGGTATTGG	0.993 ± 0.028
AGGGTCAGCT	1.02 ± 0.014
AGGGTCGATG	1.07 ± 0.073
AGGGTCGGGA	0.9838 ± 0.0013
AGGGTCTCCG	1 ± 0.062
AGGGTCTTCG	1.04 ± 0.012
AGGGTGAACC	0.99 ± 0.016
AGGGTGACCT	1.17 ± 0.15
AGGGTGAGAG	0.965 ± 0.025
AGGGTGAGGT	0.993 ± 0.022
AGGGTGGGGC	1.03 ± 0.065
AGGGTGGGTT	0.9771 ± 0.005
AGGGTGGTGC	1.03 ± 0.018
AGGGTGGTTG	0.987 ± 0.058
AGGGTTCCTG	0.954 ± 0.036
AGGGTTCGGG	1.01 ± 0.031
AGGGTTGCGC	1.02 ± 0.019
AGGGTTGGGG	0.991 ± 0.031
AGGGTTGTCG	0.99 ± 0.023
AGGGTTTCCG	1.03 ± 0.038
AGGGTTTGGT	0.982 ± 0.02
AGGTAAAGGG	0.996 ± 0.04
AGGTAAATGT	0.972 ± 0.023
AGGTAAATTC	2.33 ± 0.63
